{"source": "patent US20200405833A1", "about": "(AFFIMED, published 2020)", "binders": {"B1": {"name": "EGFR/CD16A tandem diabody (bispecific antibody)", "chain": "QVQLQESGPGLVKPSETLSLTCTVSGGSVSSGSYYWSWIRQPPGKGLEWIGYIYYSGSTNYNPSLKSRVTISVDTSKNQFSLKLSSVTAADTAVYYCARNPISIPAFDIWGQGTMVTVSSGGSGGSGGSSYVLTQPSSVSVAPGQTATISCGGHNIGSKNVHWYQQRPGQSPVLVIYQDNKRPSGIPERFSGSNSGNTATLTISGTQAMDEADYYCQVWDNYSVLFGGGTKLTVLGGSGGSQVQLVQSGAEVKKPGESLKVSCKASGYTFTSYYMHWVRQAPGQGLEWMGIINPSGGSTSYAQKFQGRVTMTRDTSTSTVYMELSSLRSEDTAVYYCARGSAYYYDFADYWGQGTLVTVSSGGSGGSGGSQPVLTQPPSVSVAPGKTARITCGGNNIGSKSVHWYQQKPGQAPVLVIYYDSDRPSGIPERFSGSNSGNTATLTISRVEAGDEADYYCQVWDTSSDHVLFGGGTKLTVLAAAGSHHHHHH", "notes": "no Fc; also called Tandem diaody"}, "B2": {"name": "scFv-IgAb_02 (bispecific antibody)", "heavy": "QVQLVQSGAEVKKPGESLKVSCKASGYTFTSYYMHWVRQAPGQGLEWMGIINPSGGSTSYAQKFQGRVTMTRDTSTSTVYMELSSLRSEDTAVYYCARGSAYYYDFADYWGQGTLVTVSSASTKGPSVFPLAPSSKSTSGGTAALGCLVKDYFPEPVTVSWNSGALTSGVHTFPAVLQSSGLYSLSSVVTVPSSSLGTQTYICNVNHKPSNTKVDKKVEPKSCDKTHTCPPCPAPEFEGGPSVFLFPPKPKDTLMISRTPEVTCVVVAVSHEDPEVKFNWYVDGVEVHNAKTKPREEQYNSTYRVVSVLTVLHQDWLNGKEYKCKVSNKALPAPIEKTISKAKGQPREPQVYTLPPSREEMTKNQVSLTCLVKGFYPSDIAVEWESNGQPENNYKTTPPVLDSDGSFFLYSKLTVDKSRWQQGNVFSCSVMHEALHNHYTQKSLSLSPGGGGGSGGGGSQVQLQESGPGLVKPSETLSLTCTVSGGSVSSGSYYWSWIRQPPGKGLEWIGYIYYSGSTNYNPSLKSRVTISVDTSKNQFSLKLSSVTAADTAVYYCARNPISIPAFDIWGQGTMVTVSSGGSGGSGGSGGSGGSGGSQPVLTQPPSVSVAPGKTARITCGGNNIGSKSVHWYQQKPGQAPVLVIYYDSDRPSGIPERFSGSNSGNTATLTISRVEAGDEADYYCQVWDTSSDHVLFGGGTKLTVL", "light": "SYVLTQPSSVSVAPGQTATISCGGHNIGSKNVHWYQQRPGQSPVLVIYQDNKRPSGIPERFSGSNSGNTATLTISGTQAMDEADYYCQVWDNYSVLFGGGTKLTVLGQPKAAPSVTLFPPSSEELQANKATLVCLISDFYPGAVTVAWKADSSPVKAGVETTTPSKQSNNKYAASSYLSLTPEQWKSHRSYSCQVTHEGSTVEKTVAPTECS", "notes": "Tetravalent, bispecific: anti-CD16A Fab arms, silenced human IgG1 Fc, anti-EGFR scFv fused C-terminally to CH3; also called EGFR/CD16A scFv-IgAb; scFv-IgAb_2"}}, "key": {"[1]": {"target": "T1, CD16A on primary human NK-cells (human, UniProt P08637 17-254)", "T1 construct": "whole, on cells; also called FcγRIIIA", "assay": "flow cytometry on primary human NK-cells, 37° C., with 10 mg/mL gammanorm (polyclonal human IgG)", "experimental": "(§1) After the last staining step, the cells were washed again and resuspended in 0.2 mL of FACS buffer containing 2 μg/mL propidium iodide (PI) (Sigma, cat.: P4170) in order to exclude dead cells. The fluorescence of 2-5×10³ living cells was measured using a Millipore Guava EasyCyte flow cytometer (Merck Millipore, Schwalbach, Germany). Mean fluorescence intensities of the cell samples were calculated using Incyte software (Merck Millipore, Schwalbach, Germany). After subtracting the fluorescence intensity values of the cells stained with the secondary and tertiary reagents alone, the values were used for non-linear regression analysis using the GraphPad Prism software (GraphPad Prism version 6.00 for Windows, GraphPad Software, La Jolla Calif. USA). For the calculation of KD, the equation for one-site-binding (hyperbola) was used.\n(§2) To assess the impact of physiological concentrations of human IgG on the binding capacity of bispecific EGFR/CD16A antigen-binding proteins, binding assays with several bispecific EGFR/CD16A antigen-binding proteins on primary human NK-cells were performed in presence or absence of 10 mg/mL polyclonal human IgG as exemplarily shown in FIG. 10."}, "EGFRvIII on CHO cells": {"target": "T2, EGFRvIII on CHO cells (human, UniProt P00533 25-1210)", "T2 construct": "whole, on cells; the exon 2-7 deletion must be applied; also called EGFRvIII+ CHO cells", "assay": "flow cytometry on CHO cells expressing recombinant EGFRvIII, 37°C; apparent affinity", "experimental": "(§3) After last staining step, the cells were washed again and resuspended in 0.2 mL of FACS buffer containing 2 μg/mL propidium iodide (PI) (Sigma, cat.: P4170) in order to exclude dead cells. The fluorescence of 2-5×10³ living cells was measured using a Beckman-Coulter FC500 MPL flow cytometer using the MXP software (Beckman-Coulter, Krefeld, Germany) or a Millipore Guava EasyCyte flow cytometer (Merck Millipore, Schwalbach, Germany). Mean fluorescence intensities of the cell samples were calculated using CXP software (Beckman-Coulter) or Incyte software (Merck Millipore, Schwalbach, Germany). After subtracting the fluorescence intensity values of the cells stained with the secondary and tertiary reagents alone, the values were used for non-linear regression analysis using the GraphPad Prism software (GraphPad Prism version 6.00 for Windows, GraphPad Software, La Jolla Calif. USA). For the calculation of KD, the equation for one-site-binding (hyperbola) was used."}, "[2]": {"target": "T3, Cynomolgus FcRn (FCGRT/B2M) (cynomolgus, UniProt Q8SPV9 24-297; Q8SPW0 21-119, biotin-labelled (Avi-Tag))", "T3 construct": "Purchased; also called FcRn (FCGRT/B2M), Avi-Tag, Biotin-Labeled, (Cynomolgus) Acro Cat #FCM-C82W5", "T3 sequence (Q8SPV9 24-297 limits assumed, chain 1 of 2)": "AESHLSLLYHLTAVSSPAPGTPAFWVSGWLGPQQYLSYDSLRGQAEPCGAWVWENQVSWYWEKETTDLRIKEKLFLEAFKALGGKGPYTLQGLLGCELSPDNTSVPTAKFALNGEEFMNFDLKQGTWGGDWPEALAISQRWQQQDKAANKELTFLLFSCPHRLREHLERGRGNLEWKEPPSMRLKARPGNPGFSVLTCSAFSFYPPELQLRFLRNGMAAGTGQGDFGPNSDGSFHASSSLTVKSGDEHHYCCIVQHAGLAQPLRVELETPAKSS", "T3 sequence (Q8SPW0 21-119 limits assumed, chain 2 of 2)": "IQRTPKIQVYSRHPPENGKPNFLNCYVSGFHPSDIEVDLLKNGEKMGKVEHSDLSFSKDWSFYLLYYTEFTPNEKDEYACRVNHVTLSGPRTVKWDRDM", "assay": "SPR (Biacore T200), pH 6.0, biotinylated FcRn captured, multi cycle kinetics", "experimental": "(§4) Binding of EGFR/CD16A antigen-binding proteins to FcRn (human, cynomolgus, murine) was measured on a Biacore T200 Instrument at 25° C. using PBS-T buffer pH 6.0 as running buffer and for dilution (1×Gibco PBS, 0.005% Tween20, titrated to pH 6.0 using 4 M HCl). For this purpose, a Multi Cycle Kinetic experiments was performed using Biotin CAPture Kit (GE Healthcare). For activation of the sensor surface, Biotin CAPture reagent (GE Healthcare) was injected to Flow Cells Fc 1-4 (100 sec, 5 μL/min) resulting in a response of 2100 RU-2800 RU. Biotinylated FcRn of different species were injected to Flow Cell Fc 2 (5 μL/min) resulting in a response of about 8-15 RU. A dilution series of EGFR/CD16A antigen-binding proteins was in (pH 7.4) as running buffer and for dilution. […] Chip was regenerated using Regeneration solution (GE Healthcare) (10 μL/min, Flow cells 1-4, 120 sec). Sensorgrams are referenced by subtraction of zero concentration cycle and subtraction of signals in reference channel Fc 1 (Fc 2-1, Fc 3-1, Fc 4-1). […] Chip was regenerated using Regeneration solution (GE Healthcare) (10 μL/min, Flow cells 1-4, 120 sec). […] Binding kinetics were evaluated by fitting data to 1:1 Binding Model (Rmax and RI locally fitted) using Biacore T200 Evaluation Software."}, "Human FcRn (FCGRT/B2M) [3]": {"target": "T4, Human FcRn (FCGRT/B2M) (human, UniProt P55899 24-297; P61769 21-119, biotin-labelled (site not stated))", "T4 construct": "Purchased; also called FcRn (FCGRT/B2M), His-Tag, Biotin-Labeled, (Human) HiP Cat #71283", "T4 sequence (P55899 24-297 limits assumed, chain 1 of 2)": "as the sequence (Q8SPV9 24-297 limits assumed, chain 1 of 2) above, with D39N, Q44E, S99G, G189S, N190S, M217L, T269S counted along it", "T4 sequence (P61769 21-119 limits assumed, chain 2 of 2)": "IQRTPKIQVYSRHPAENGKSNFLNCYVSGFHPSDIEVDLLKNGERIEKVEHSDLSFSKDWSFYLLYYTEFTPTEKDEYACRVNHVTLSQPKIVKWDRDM", "assay": "SPR (Biacore T200), pH 6.0, biotinylated FcRn captured, multi cycle kinetics"}, "Mouse FcRn (FCGRT/B2M) [4]": {"target": "T5, Mouse FcRn (FCGRT/B2M) (mouse, UniProt Q61559 22-297; P01887 21-119, biotin-labelled (Avi-Tag))", "T5 construct": "Purchased; also called murine FcRn; murine FcRn receptor", "T5 sequence (looked up)": "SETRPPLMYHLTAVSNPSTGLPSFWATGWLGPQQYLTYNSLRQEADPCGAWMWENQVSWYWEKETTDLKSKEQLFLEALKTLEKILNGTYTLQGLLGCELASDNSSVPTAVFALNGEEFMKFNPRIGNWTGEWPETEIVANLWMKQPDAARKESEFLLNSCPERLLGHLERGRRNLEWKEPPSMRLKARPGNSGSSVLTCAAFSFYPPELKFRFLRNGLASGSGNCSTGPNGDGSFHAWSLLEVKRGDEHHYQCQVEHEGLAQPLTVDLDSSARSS", "T5 sequence (b2m, looked up)": "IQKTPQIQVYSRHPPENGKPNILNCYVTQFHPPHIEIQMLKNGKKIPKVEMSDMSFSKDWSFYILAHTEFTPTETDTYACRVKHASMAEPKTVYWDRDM", "assay": "SPR (Biacore T200), pH 6.0, biotinylated FcRn captured, multi cycle kinetics", "experimental": "as §4"}, "human EGFR on cells [5]": {"target": "T6, human EGFR on cells (human, UniProt P00533 25-1210)", "assay": "cell-based or functional assay"}, "[6]": {"target": "T1, CD16A on primary human NK-cells", "assay": "flow cytometry on primary human NK-cells, 37°C, without IgG; mean of 2 experiments", "experimental": "as §1, §2"}, "[7]": {"target": "T1, CD16A on primary human NK-cells", "assay": "flow cytometry on primary human NK-cells, 37°C, with 10 mg/mL polyclonal human IgG (Gammanorm); mean of 2 experiments", "experimental": "as §1, §2"}, "human EGFR on cells [8]": {"target": "T6, human EGFR on cells", "assay": "flow cytometry on CHO cells expressing recombinant human EGFR, 37°C; apparent affinity", "experimental": "as §3"}, "CD16A-antigen (ELISA)": {"target": "T7, CD16A-antigen (ELISA)", "T7 construct": "also called CD16A-Fc", "assay": "ELISA, coated CD16A-Fc antigen, tandem diabody titrated (His-tagged analyte, Penta-HIS-HRP per paragraph 126)", "experimental": "(§5) 96-well ELISA plates (Immuno MaxiSorp; Nunc) were coated overnight at 4° C. with recombinant antigen or antibodies in 100 mM Carbonate-bicarbonate buffer. […] After a blocking step with 3% (w/v) skim milk powder (Merck) dissolved in PBS, serial dilutions of the different antibodies or soluble antigens in PBS containing 0.3% (w/v) skim milk powder were incubated on the plates for 1.5 h at room temperature. After washing three times with 300 μL per well of PBS containing 0.1% (v/v) Tween 20, plates were incubated with detection antibodies for 1 h at room temperature. For the detection of His-tagged analytes, Penta-HIS-HRP (Qiagen) was used at 1:3000 dilution. […] After washing three times with 300 μL per well of PBS containing 0.1% (v/v) Tween 20, plates were incubated with Tetramethylbenzidine (TMB) substrate (Seramun) until colour development was clearly visible. The reaction was stopped through the addition of 100 μL per well of 0.5 M H₂SO₄. The absorbance was measured at 450 nm using a multilabel plate reader (Victor, Perkin Elmer)."}, "human EGFR on cells [9]": {"target": "T6, human EGFR on cells", "assay": "cell-based or functional assay", "remark": "listed apart in the source"}, "human EGFR on cells [10]": {"target": "T6, human EGFR on cells", "assay": "flow cytometry on HCT-116 cells, 37°C; mean of 2 experiments", "experimental": "After the last staining step, the cells were washed again and resuspended in 0.2 mL of FACS buffer containing 2 μg/mL propidium iodide (PI) (Sigma, cat.: P4170) in order to exclude dead cells. The fluorescence of 2-5×10³ living cells was measured using a Millipore Guava EasyCyte flow cytometer (Merck Millipore, Schwalbach, Germany). Mean fluorescence intensities of the cell samples were calculated using the Incyte software (Merck Millipore, Schwalbach, Germany). After subtracting the fluorescence intensity values of the cells stained with the secondary and tertiary reagents alone, the values were used for non-linear regression analysis using the GraphPad Prism software (GraphPad Prism version 6.00 for Windows, GraphPad Software, La Jolla Calif. USA). For the calculation of KD, the equation for one-site-binding (hyperbola) was used."}, "human EGFR on cells [11]": {"target": "T6, human EGFR on cells", "assay": "cell-based or functional assay", "remark": "listed apart in the source"}, "EGFR-antigen (ELISA)": {"target": "T8, EGFR-antigen (ELISA)", "T8 construct": "also called EGFR-Fc", "assay": "ELISA, coated EGFR-Fc antigen, tandem diabody titrated (His-tagged analyte, Penta-HIS-HRP per paragraph 126)", "experimental": "as §5"}, "human EGFR on cells [12]": {"target": "T6, human EGFR on cells", "assay": "flow cytometry on EGFR-expressing A-431 cells, 37° C."}, "human EGFR on cells [13]": {"target": "T6, human EGFR on cells", "assay": "saturation binding assay on A-431 cells with radioiodinated scFv-IgAB_02; saturation binding assay on A-431 cells"}, "human EGFR on cells [14]": {"target": "T6, human EGFR on cells", "assay": "cell-based or functional assay", "remark": "listed apart in the source"}, "huCD16A^RV-His": {"target": "T9, huCD16A^RV-His (human)", "T9 construct": "soluble, His-tagged; also called CD16-His antigen", "assay": "ELISA, coated EGFR/CD16A scFv-IgAb, soluble huCD16A^RV-His titrated (the concentration axis is that of the antigen), Penta-HIS-HRP per paragraph 126", "experimental": "as §5"}, "EGFR-mFc": {"target": "T10, EGFR-mFc", "T10 construct": "Coated at 2.5 µg/mL in ELISA; also called monomeric EGFR-mFc; EGFR-mFc antigen", "assay": "ELISA, coated EGFR-mFc antigen, scFv-IgAb titrated, bound construct detected with biotinylated CD16-Fc and streptavidin-HRP", "experimental": "as §5"}, "huCD16A": {"target": "huCD16A (human, UniProt P08637 17-208, limits assumed)", "assay": "RIA assay on huCD16A with radioiodinated scFv-IgAB_02; RIA assay on huCD16A"}, "[15]": {"target": "T3, Cynomolgus FcRn (FCGRT/B2M)", "assay": "SPR (Biacore T200), pH 6.0, biotinylated FcRn captured, multi cycle kinetics, 1:1 model", "experimental": "as §4"}, "Human FcRn (FCGRT/B2M) [16]": {"target": "T4, Human FcRn (FCGRT/B2M)", "assay": "SPR (Biacore T200), pH 6.0, biotinylated FcRn captured, multi cycle kinetics, 1:1 model", "experimental": "as §4"}, "Mouse FcRn (FCGRT/B2M) [17]": {"target": "T5, Mouse FcRn (FCGRT/B2M)", "assay": "SPR (Biacore T200), pH 6.0, biotinylated FcRn captured, multi cycle kinetics, 1:1 model", "experimental": "as §4"}}}
{"binder": "B1", "values": [{"measurement": "EC50 (read off the curve)", "setting": "[1]", "result": "~10", "unit": "nM"}, {"measurement": "Kd", "setting": "EGFRvIII on CHO cells", "result": 0.5, "unit": "nM"}, {"measurement": "binding result", "setting": "[2]", "result": "no binding (tested: up to 3000 nM)"}, {"measurement": "binding result", "setting": "Human FcRn (FCGRT/B2M) [3]", "result": "no binding (tested: up to 3000 nM)"}, {"measurement": "binding result", "setting": "Mouse FcRn (FCGRT/B2M) [4]", "result": "no binding (tested: up to 3000 nM)"}, {"measurement": "EC50, inhibition of EGF-induced EGFR phosphorylation (phospho-EGFR ELISA, A-431 cells), Exp.1", "setting": "human EGFR on cells [5]", "result": "> 100", "unit": "µg/mL"}, {"measurement": "EC50, inhibition of EGF-induced EGFR phosphorylation (phospho-EGFR ELISA, A-431 cells), Exp.2", "setting": "human EGFR on cells [5]", "result": "> 100", "unit": "µg/mL"}, {"measurement": "Kd", "setting": "[6]", "result": 7.7, "unit": "nM"}, {"measurement": "Kd", "setting": "[7]", "result": 8.8, "unit": "nM"}, {"measurement": "Kd", "setting": "human EGFR on cells [8]", "result": 0.7, "unit": "nM"}, {"measurement": "EC50 (read off the curve)", "setting": "CD16A-antigen (ELISA)", "result": "~0.03", "unit": "µg/mL"}, {"measurement": "EC50 [pM] mean, 4 h calcein-release cytotoxicity, A-431 target cells, human NK-cells E:T 5:1", "setting": "human EGFR on cells [9]", "result": 1.1, "unit": "pM"}, {"measurement": "Kd", "setting": "human EGFR on cells [10]", "result": 0.3, "unit": "nM"}, {"measurement": "EC50 [pM] mean, 4 h calcein-release cytotoxicity, HCT-116 target cells, human NK-cells E:T 5:1", "setting": "human EGFR on cells [11]", "result": 1.5, "unit": "pM"}, {"measurement": "EC50 (read off the curve)", "setting": "EGFR-antigen (ELISA)", "result": "~0.02", "unit": "µg/mL"}, {"measurement": "EC50 (read off the curve)", "setting": "human EGFR on cells [12]", "result": "~2", "unit": "nM"}]}
{"binder": "B2", "values": [{"measurement": "Kd", "setting": "human EGFR on cells [13]", "result": 6.98, "unit": "nM"}, {"measurement": "EC50 [µg/mL] on A-431 cells, inhibition of EGF-stimulated EGFR phosphorylation (phospho-EGFR ELISA)", "setting": "human EGFR on cells [14]", "result": 1520, "unit": "µg/mL"}, {"measurement": "EC50 [µg/mL] on A-549 cells, inhibition of EGF-stimulated EGFR phosphorylation (phospho-EGFR ELISA)", "setting": "human EGFR on cells [14]", "result": 478, "unit": "µg/mL"}, {"measurement": "EC50 (read off the curve)", "setting": "huCD16A^RV-His", "result": "~1", "unit": "nM"}, {"measurement": "EC50 (read off the curve)", "setting": "EGFR-mFc", "result": "~0.02", "unit": "µg/mL"}, {"measurement": "Kd", "setting": "huCD16A", "result": 0.729, "unit": "nM"}, {"measurement": "Kd", "setting": "[6]", "result": 8, "unit": "nM"}, {"measurement": "Kd", "setting": "[7]", "result": 13.1, "unit": "nM"}, {"measurement": "Kd", "setting": "[15]", "result": 842, "unit": "nM"}, {"measurement": "EC50 [pM] mean, 4 h calcein-release cytotoxicity, A-431 target cells, human NK-cells E:T 5:1", "setting": "human EGFR on cells [9]", "result": 2.1, "unit": "pM"}, {"measurement": "Kd", "setting": "Human FcRn (FCGRT/B2M) [16]", "result": 430, "unit": "nM"}, {"measurement": "Kd", "setting": "Mouse FcRn (FCGRT/B2M) [17]", "result": 180, "unit": "nM"}, {"measurement": "EC50 [pM] mean, 4 h calcein-release cytotoxicity, HCT-116 target cells, human NK-cells E:T 5:1", "setting": "human EGFR on cells [11]", "result": 4.3, "unit": "pM"}, {"measurement": "EC50 (read off the curve)", "setting": "human EGFR on cells [12]", "result": "~2", "unit": "nM"}]}
